{"source": "the Human Domainome abundance scans (Beltran et al. 2025)", "parents": {"B1": {"name": "Intersectin-2, residues 1129 to 1183; numbered along this chain, Q9NZM3 (parent)", "chain": "VCQVIAMYDYAANNEDELSFSKGQLINVMNKDDPDWWQGEINGVTGLFPSNYVKM"}}, "note": "± gives the uncertainty stated by the source.", "data": [{"variants_of": "B1", "assay": "abundance fitness (aPCA) (normalised: wild type 0, dead -1); higher = more abundant; growth selection in yeast, the domain comes from the species named", "details": "Homo sapiens", "values": [{"variant": "VCQVIAMYDYAANNADELSFSKGQLINVMNKDDPDWWQGEINGVTGLFPSNYVKM", "note": "[E15A]", "abundance fitness": "-0.03 ± 0.036"}, {"variant": "VCQVIAMYDYAANNIDELSFSKGQLINVMNKDDPDWWQGEINGVTGLFPSNYVKM", "note": "[E15I]", "abundance fitness": "-0.076 ± 0.054"}, {"variant": "VCQVIAMYDYAANNGDELSFSKGQLINVMNKDDPDWWQGEINGVTGLFPSNYVKM", "note": "[E15G]", "abundance fitness": "-0.006 ± 0.034"}, {"variant": "VCQVIAMYDYAANNTDELSFSKGQLINVMNKDDPDWWQGEINGVTGLFPSNYVKM", "note": "[E15T]", "abundance fitness": "0.033 ± 0.049"}, {"variant": "VCQVIAMYDYAANNWDELSFSKGQLINVMNKDDPDWWQGEINGVTGLFPSNYVKM", "note": "[E15W]", "abundance fitness": "-0.141 ± 0.047"}, {"variant": "VCQVIAMYDYAANNEDEASFSKGQLINVMNKDDPDWWQGEINGVTGLFPSNYVKM", "note": "[L18A]", "abundance fitness": "-0.715 ± 0.06"}, {"variant": "VCQVIAMYDYAANNEDECSFSKGQLINVMNKDDPDWWQGEINGVTGLFPSNYVKM", "note": "[L18C]", "abundance fitness": "-0.378 ± 0.058"}, {"variant": "VCQVIAMYDYAANFEDELSFSKGQLINVMNKDDPDWWQGEINGVTGLFPSNYVKM", "note": "[N14F]", "abundance fitness": "-0.08 ± 0.063"}, {"variant": "VCQVIAMYDYAANHEDELSFSKGQLINVMNKDDPDWWQGEINGVTGLFPSNYVKM", "note": "[N14H]", "abundance fitness": "0.02 ± 0.066"}, {"variant": "VCQVIAMYDYAANCEDELSFSKGQLINVMNKDDPDWWQGEINGVTGLFPSNYVKM", "note": "[N14C]", "abundance fitness": "-0.027 ± 0.061"}, {"variant": "VCQVIAMYDYAANQEDELSFSKGQLINVMNKDDPDWWQGEINGVTGLFPSNYVKM", "note": "[N14Q]", "abundance fitness": "-0.01 ± 0.056"}, {"variant": "VCQVIAMYDYAANAEDELSFSKGQLINVMNKDDPDWWQGEINGVTGLFPSNYVKM", "note": "[N14A]", "abundance fitness": "-0.038 ± 0.05"}, {"variant": "VCQVIAMYDYAANTEDELSFSKGQLINVMNKDDPDWWQGEINGVTGLFPSNYVKM", "note": "[N14T]", "abundance fitness": "-0.001 ± 0.044"}, {"variant": "VCQVIAMYDYAANYEDELSFSKGQLINVMNKDDPDWWQGEINGVTGLFPSNYVKM", "note": "[N14Y]", "abundance fitness": "-0.048 ± 0.065"}, {"variant": "VCQVIAMYDYAANREDELSFSKGQLINVMNKDDPDWWQGEINGVTGLFPSNYVKM", "note": "[N14R]", "abundance fitness": "0.007 ± 0.029"}, {"variant": "VCQVIAMYDYAANMEDELSFSKGQLINVMNKDDPDWWQGEINGVTGLFPSNYVKM", "note": "[N14M]", "abundance fitness": "-0.016 ± 0.042"}, {"variant": "VCQVIAMYDYAANWEDELSFSKGQLINVMNKDDPDWWQGEINGVTGLFPSNYVKM", "note": "[N14W]", "abundance fitness": "-0.203 ± 0.039"}, {"variant": "VCQVIAMYDYAANGEDELSFSKGQLINVMNKDDPDWWQGEINGVTGLFPSNYVKM", "note": "[N14G]", "abundance fitness": "-0.024 ± 0.045"}, {"variant": "VCQVIAMYDYAANSEDELSFSKGQLINVMNKDDPDWWQGEINGVTGLFPSNYVKM", "note": "[N14S]", "abundance fitness": "0.014 ± 0.046"}, {"variant": "VCQVIAMYDYAANPEDELSFSKGQLINVMNKDDPDWWQGEINGVTGLFPSNYVKM", "note": "[N14P]", "abundance fitness": "-0.535 ± 0.062"}, {"variant": "VCQVIAMYDYAANDEDELSFSKGQLINVMNKDDPDWWQGEINGVTGLFPSNYVKM", "note": "[N14D]", "abundance fitness": "-0.089 ± 0.047"}, {"variant": "VCQVIAMYDYAANVEDELSFSKGQLINVMNKDDPDWWQGEINGVTGLFPSNYVKM", "note": "[N14V]", "abundance fitness": "-0.099 ± 0.043"}, {"variant": "VCQVIAMYDYAANIEDELSFSKGQLINVMNKDDPDWWQGEINGVTGLFPSNYVKM", "note": "[N14I]", "abundance fitness": "-0.092 ± 0.065"}, {"variant": "VCQVIAMYDYAANEEDELSFSKGQLINVMNKDDPDWWQGEINGVTGLFPSNYVKM", "note": "[N14E]", "abundance fitness": "-0.044 ± 0.036"}, {"variant": "VCQVIAMYDYAYNNEDELSFSKGQLINVMNKDDPDWWQGEINGVTGLFPSNYVKM", "note": "[A12Y]", "abundance fitness": "-0.455 ± 0.045"}, {"variant": "VCQVIAMYDYAWNNEDELSFSKGQLINVMNKDDPDWWQGEINGVTGLFPSNYVKM", "note": "[A12W]", "abundance fitness": "-0.685 ± 0.098"}, {"variant": "VCQVIAMYDYAVNNEDELSFSKGQLINVMNKDDPDWWQGEINGVTGLFPSNYVKM", "note": "[A12V]", "abundance fitness": "-0.334 ± 0.042"}, {"variant": "VCQVIAMYDYASNNEDELSFSKGQLINVMNKDDPDWWQGEINGVTGLFPSNYVKM", "note": "[A12S]", "abundance fitness": "-0.056 ± 0.035"}, {"variant": "VCQVIAMYDYATNNEDELSFSKGQLINVMNKDDPDWWQGEINGVTGLFPSNYVKM", "note": "[A12T]", "abundance fitness": "-0.038 ± 0.035"}, {"variant": "VCQVIAMYDYAANNEQELSFSKGQLINVMNKDDPDWWQGEINGVTGLFPSNYVKM", "note": "[D16Q]", "abundance fitness": "-0.044 ± 0.039"}, {"variant": "VCQVIAMYDYAANNELELSFSKGQLINVMNKDDPDWWQGEINGVTGLFPSNYVKM", "note": "[D16L]", "abundance fitness": "-0.034 ± 0.044"}, {"variant": "VCQVIAMYDYAANNEWELSFSKGQLINVMNKDDPDWWQGEINGVTGLFPSNYVKM", "note": "[D16W]", "abundance fitness": "-0.117 ± 0.038"}, {"variant": "VCQVIAMYDYAANNEVELSFSKGQLINVMNKDDPDWWQGEINGVTGLFPSNYVKM", "note": "[D16V]", "abundance fitness": "-0.082 ± 0.044"}, {"variant": "VCQVIAMYDYAANNEEELSFSKGQLINVMNKDDPDWWQGEINGVTGLFPSNYVKM", "note": "[D16E]", "abundance fitness": "-0.011 ± 0.057"}, {"variant": "VCQVIAMYDYAANNEKELSFSKGQLINVMNKDDPDWWQGEINGVTGLFPSNYVKM", "note": "[D16K]", "abundance fitness": "0.016 ± 0.035"}, {"variant": "VCQVIAMYDYAANNEGELSFSKGQLINVMNKDDPDWWQGEINGVTGLFPSNYVKM", "note": "[D16G]", "abundance fitness": "-0.02 ± 0.033"}, {"variant": "VCQVIAMYDYAANNERELSFSKGQLINVMNKDDPDWWQGEINGVTGLFPSNYVKM", "note": "[D16R]", "abundance fitness": "0.001 ± 0.038"}, {"variant": "VCQVIAMYDYAANNESELSFSKGQLINVMNKDDPDWWQGEINGVTGLFPSNYVKM", "note": "[D16S]", "abundance fitness": "-0.004 ± 0.033"}, {"variant": "VCQVIAMYDYAANNEAELSFSKGQLINVMNKDDPDWWQGEINGVTGLFPSNYVKM", "note": "[D16A]", "abundance fitness": "0.004 ± 0.041"}, {"variant": "VCQVIAMYDYAANNENELSFSKGQLINVMNKDDPDWWQGEINGVTGLFPSNYVKM", "note": "[D16N]", "abundance fitness": "-0.068 ± 0.065"}, {"variant": "VCQVIAMYDYAANNEYELSFSKGQLINVMNKDDPDWWQGEINGVTGLFPSNYVKM", "note": "[D16Y]", "abundance fitness": "0.047 ± 0.066"}, {"variant": "VCQVIAMYDYAANNEPELSFSKGQLINVMNKDDPDWWQGEINGVTGLFPSNYVKM", "note": "[D16P]", "abundance fitness": "-0.075 ± 0.058"}, {"variant": "VCQVIAMYDYAANNETELSFSKGQLINVMNKDDPDWWQGEINGVTGLFPSNYVKM", "note": "[D16T]", "abundance fitness": "-0.126 ± 0.055"}, {"variant": "VCQVIAMYDYAANNEIELSFSKGQLINVMNKDDPDWWQGEINGVTGLFPSNYVKM", "note": "[D16I]", "abundance fitness": "0.109 ± 0.061"}, {"variant": "VCQVIAMYDYAANNECELSFSKGQLINVMNKDDPDWWQGEINGVTGLFPSNYVKM", "note": "[D16C]", "abundance fitness": "-0.014 ± 0.057"}, {"variant": "VCQVIAMYDYAANNEHELSFSKGQLINVMNKDDPDWWQGEINGVTGLFPSNYVKM", "note": "[D16H]", "abundance fitness": "-0.101 ± 0.057"}, {"variant": "VCQVIAMYDYAANNEFELSFSKGQLINVMNKDDPDWWQGEINGVTGLFPSNYVKM", "note": "[D16F]", "abundance fitness": "-0.04 ± 0.033"}, {"variant": "VCQVIAMYDYAANNEMELSFSKGQLINVMNKDDPDWWQGEINGVTGLFPSNYVKM", "note": "[D16M]", "abundance fitness": "-0.066 ± 0.049"}]}]}
